{"source": "paper PMC3602377", "about": "“Steady-State NTPase Activity of Dengue Virus NS3: Number of Catalytic Sites, Nucleotide Specificity and Activation by ssRNA”", "binders": {"B1": {"name": "fluorescein-labeled 10-nt ssRNA (ssRNA)", "RNA": "AGUUGAGUUG"}}, "target": "NS3h (NS3 helicase domain) (Dengue virus serotype 2 (cDNA of …, UniProt O09234 1646-2093))", "test": "fluorescence intensity titration (ex 495 nm, em 525-570 nm), 1:1 single-site fit; 1.5 mM free Mg2+; no ATP stated; constant printed as 'K' in nM, subscript lost, read as Kd", "details": "protein: recombinant; tags: N-terminal His6 (pET-28a); label: 5'-fluorescein", "data": [{"binder": "B1", "values": [{"measurement": "Kd", "value": "750 ± 80", "unit": "pM"}]}]}
